Test results reported in patent US20230204567A1 (Takeda / Millennium, published 2023).

Assays:
[1] = biological target: T1, inactivated DENV2 (16681; Microbix) (Dengue virus serotype 2, UniProt P29990 281-775); test: ELISA, antigen coated at 1 µg/mL, hybridoma supernatant
T1 construct: also called dengue virus serotype 2

[2] = biological target: T2, inactivated DENV1 (West Pacific 74, Microbix) (Dengue virus serotype 1, UniProt P17763 281-775); test: as above
T2 construct: also called dengue virus serotype 1
T2 sequence (P17763 281-775 limits assumed): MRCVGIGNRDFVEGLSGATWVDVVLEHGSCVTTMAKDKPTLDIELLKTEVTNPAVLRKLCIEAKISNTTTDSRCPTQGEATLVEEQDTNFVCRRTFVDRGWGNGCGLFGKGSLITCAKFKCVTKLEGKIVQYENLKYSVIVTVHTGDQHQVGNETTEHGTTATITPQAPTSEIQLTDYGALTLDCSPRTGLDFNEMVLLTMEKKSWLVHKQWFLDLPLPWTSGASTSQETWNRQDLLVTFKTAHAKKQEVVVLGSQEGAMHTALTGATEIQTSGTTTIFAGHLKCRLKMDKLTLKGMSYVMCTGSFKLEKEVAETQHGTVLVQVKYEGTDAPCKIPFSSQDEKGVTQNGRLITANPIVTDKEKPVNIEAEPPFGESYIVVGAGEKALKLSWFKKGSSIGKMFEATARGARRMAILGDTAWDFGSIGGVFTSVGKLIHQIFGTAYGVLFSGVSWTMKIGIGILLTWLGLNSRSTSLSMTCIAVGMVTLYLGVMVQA

[3] = biological target: T3, ZIKV E protein (Native Antigen) (Zika virus); test: ELISA, antigen coated at 1 µg/mL, hybridoma supernatant, anti-rabbit IgG-HRP
T3 chain: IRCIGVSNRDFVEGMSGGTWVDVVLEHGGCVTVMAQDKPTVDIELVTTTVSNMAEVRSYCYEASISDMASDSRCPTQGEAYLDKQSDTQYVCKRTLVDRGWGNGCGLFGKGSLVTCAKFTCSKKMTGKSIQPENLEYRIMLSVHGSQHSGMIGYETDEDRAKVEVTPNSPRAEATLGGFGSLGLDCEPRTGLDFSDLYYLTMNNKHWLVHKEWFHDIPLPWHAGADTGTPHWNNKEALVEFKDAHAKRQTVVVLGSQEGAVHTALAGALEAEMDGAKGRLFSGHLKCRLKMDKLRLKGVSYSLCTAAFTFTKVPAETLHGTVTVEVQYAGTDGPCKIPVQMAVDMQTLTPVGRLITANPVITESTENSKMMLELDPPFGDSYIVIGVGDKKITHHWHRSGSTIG

[4] = biological target: T1, inactivated DENV2 (16681; Microbix); test: as above
[5] = biological target: T2, inactivated DENV1 (West Pacific 74, …); test: as above
[6] = biological target: T4, inactivated DENV3 (CH53489, Microbix) (Dengue virus serotype 3); test: as above
T4 construct: also called dengue virus serotype 3

[7] = biological target: T5, inactivated DENV4 (TVP-360, Microbix) (Dengue virus serotype 4); test: as above
T5 construct: also called dengue virus serotype 4

| Binder | binding result [1] | binding result [2] | optical density (OD) [3] [OD] | optical density (OD) [4] [OD] | optical density (OD) [5] [OD] | optical density (OD) [6] [OD] | optical density (OD) [7] [OD] |
| --- | --- | --- | --- | --- | --- | --- | --- |
| Anti-ZIKV #2 (IgG, Clone 306-2) (antibody, V domains shown, also called antibody 2; acceptor Ab of mAb pairs #1 to 3) VH: QSLEESGGDLVKPGASLTLTCTASGFDFSDRYYMCWVRQAPGKGLEWIGCIYVGSGDTYYASWAKGRFTISRTSSTTVTLQMTRLTAADTATYFCARHPGTYFTLWGPGTLVTVSS VL: DVVMTQTPSSVSAAVGGTVTINCQASQNIVNNLAWYQQRPGQPPKLLIYDTSTLASGVPSRFKGSGSGTEFTLTISDLECADAATYYCQTYYYYNKIINGFGGGTEVVVKG | no binding | no binding | 0.61 | 0.034 | 0.037 | 0.034 | 0.048 |
| Anti-ZIKV #1 (IgG, Clone 242-3) (antibody, V domains shown, also called antibody 1; donor Ab of mAb pair #1) VH: QAQLEESGGDLVKPEGSLTLTCTASGFSFTDRHYMCWIRQAPGKGLEWIACVYPGSSGSTYYASWARGRFTISKTSSTTVTLRMTSLTAADTATYFCARSSYPDSSGYSYGMDLWGPGTLVTVSS VL: DIVMTQTPASVEAAVGGTVTIKCQASQNINSNLAWYQQKPGQRPKFLMYLTSKLASGVPSRFRGSGSGTQFTLTISDLECADAATYYCQTYYDISNYGYAFGGGTEVVVKG | no binding | no binding | 0.33 | 0.034 | 0.04 | 0.04 | 0.038 |
